Molecular target: phosphatidyl inositol 5-phosphate 4-kinase 2β subunit (PI5P4K2β), C-terminal 3xFLAG and two 6xHis tags (chicken (endogenous in DT40))
Assay: affinity purification with mass spectrometry; SILAC-iPAC: lysates of JPR3 cells (tagged PI5P4K2β) and tag-less wild-type DT40 cells, differentially SILAC labelled (K6R6 or K0R0, reciprocal labellings), mixed 1:1; captured in parallel on EZview ANTI-FLAG M2 Affinity Gel and TALON Metal Affinity Resin for 1 h; lysis buffer 1x PBS pH 7.4, 1% Triton X-100; eluted with 3xFLAG peptide or 150 mM imidazole; LC-MS/MS, MaxQuant ratios

- ratio of PI5P4K2β:PI5P4K2α in the pull-down: 1.28
B1: phosphatidyl inositol 5-phosphate 4-kinase 2α subunit (PI5P4K2α) (natural protein)
chain: MAAPGTVASVMASKTKTKKKHFVVQKVKLFRASDPLLSVLMWGVNHSINELSHVQIPVMLMPDDFKAYSKIKVDNHLFNKENMPSHFKFKEYCPMVFRNLRERFGIDDQDFQNSLTRSAPLANDSQARSGARFHTSYDKRYIIKTITSEDVAEMHNILKKYHQFIVECHGNTLLPQFLGMYRLTVDGVEIYMIVTRNVFSHRLSVYRKYDLKGSTVAREASDKEKAKELPTFKDNDFINDGQKIHIDENNKRMFLEKLKKDVEFLAQLKLMDYSLLVGIHDVERAEQEEVECEENDGEDEGESDGTHPIGTPPDSPGNTLNSSLPLAPGEFDPAIDVYGIKSHESAPRKEVYFMAIIDILTHYDAKKKAAHAAKTVKHGAGAEISTVNPEQYSKRFLDFIANILT

Reference: PMC4329988
